Values of other authors in PMC9315744.

Experiments:
Assay in all cases: MST
[1] = target: MHV spike glycoprotein ECD (Murine hepatitis virus) (UniProt P11224)
[2] = target: Nsp7/Nsp8 complex (SARS-CoV-2) (UniProt P0DTD1)
Nsp8 (SARS-CoV-2) = Nsp8 (SARS-CoV-2) (UniProt P0DTD1)

Chain of CEACAM1a (P31809 35-428): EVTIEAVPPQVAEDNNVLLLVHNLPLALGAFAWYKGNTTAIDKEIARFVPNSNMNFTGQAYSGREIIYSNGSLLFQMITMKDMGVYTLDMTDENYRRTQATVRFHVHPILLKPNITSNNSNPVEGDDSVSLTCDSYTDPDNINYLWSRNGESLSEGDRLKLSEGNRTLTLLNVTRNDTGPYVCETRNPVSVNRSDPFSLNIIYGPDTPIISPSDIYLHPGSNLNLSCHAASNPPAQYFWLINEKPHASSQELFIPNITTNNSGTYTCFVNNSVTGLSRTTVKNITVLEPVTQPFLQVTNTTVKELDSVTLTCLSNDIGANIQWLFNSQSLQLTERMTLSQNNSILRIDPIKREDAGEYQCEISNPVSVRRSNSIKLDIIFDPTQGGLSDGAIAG
Chain of MHV spike glycoprotein ECD (Murine hepatitis virus) (P11224 15-1231): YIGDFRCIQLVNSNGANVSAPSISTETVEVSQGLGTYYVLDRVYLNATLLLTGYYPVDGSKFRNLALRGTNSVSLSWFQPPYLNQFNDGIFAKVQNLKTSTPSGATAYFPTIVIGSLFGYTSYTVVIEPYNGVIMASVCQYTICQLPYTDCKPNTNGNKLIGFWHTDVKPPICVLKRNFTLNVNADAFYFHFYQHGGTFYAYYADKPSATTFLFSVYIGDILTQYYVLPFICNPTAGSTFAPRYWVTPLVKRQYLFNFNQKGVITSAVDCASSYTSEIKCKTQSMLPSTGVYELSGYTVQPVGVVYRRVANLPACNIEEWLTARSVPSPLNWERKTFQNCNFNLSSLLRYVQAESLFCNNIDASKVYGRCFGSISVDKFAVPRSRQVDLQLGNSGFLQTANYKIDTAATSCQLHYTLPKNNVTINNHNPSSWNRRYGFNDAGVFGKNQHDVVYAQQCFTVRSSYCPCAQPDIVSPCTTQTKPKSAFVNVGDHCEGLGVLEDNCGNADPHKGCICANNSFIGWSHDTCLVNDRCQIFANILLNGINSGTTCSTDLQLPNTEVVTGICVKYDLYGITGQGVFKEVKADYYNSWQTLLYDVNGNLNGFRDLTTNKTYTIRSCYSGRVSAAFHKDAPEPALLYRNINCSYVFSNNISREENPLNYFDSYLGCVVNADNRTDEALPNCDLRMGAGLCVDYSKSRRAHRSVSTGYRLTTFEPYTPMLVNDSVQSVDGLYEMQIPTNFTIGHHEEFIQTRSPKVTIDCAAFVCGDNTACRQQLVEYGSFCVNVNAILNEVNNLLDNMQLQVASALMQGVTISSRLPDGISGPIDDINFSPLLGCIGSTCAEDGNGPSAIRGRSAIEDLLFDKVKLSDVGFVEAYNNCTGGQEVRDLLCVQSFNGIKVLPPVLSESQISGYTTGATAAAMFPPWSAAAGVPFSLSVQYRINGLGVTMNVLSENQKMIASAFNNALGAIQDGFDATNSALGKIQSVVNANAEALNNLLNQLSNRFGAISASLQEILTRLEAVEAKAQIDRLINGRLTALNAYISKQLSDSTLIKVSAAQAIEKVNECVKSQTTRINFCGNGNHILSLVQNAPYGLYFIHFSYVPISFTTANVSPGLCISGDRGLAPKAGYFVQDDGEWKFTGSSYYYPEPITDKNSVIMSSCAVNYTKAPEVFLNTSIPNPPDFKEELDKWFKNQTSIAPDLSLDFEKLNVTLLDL

CEACAM1a (from UniProt P31809)
Kd [1]: 0.0485 µM

Nsp15 (from UniProt P0DTD1)
Kd [2]: 6.48 µM
Kd (Nsp8 (SARS-CoV-2)): 16.3 µM
